Measured values as given in US20170073416A1 (SPRING BIOSCIENCE, published 2017).
No end group written: not given here.

Legend:
human B7-H3 = target: T1, human B7-H3 (human, UniProt Q5ZPR3 29-534); assay: IHC on FFPE samples
T1 construct: whole, on cells; Endogenous protein detected in FFPE cells and tissues by IHC, and as a 110 kDa band in SDS-PAGE-fractionated cell lysates by Western blot; also called B7-H3 polypeptide
T1 sequence (looked up): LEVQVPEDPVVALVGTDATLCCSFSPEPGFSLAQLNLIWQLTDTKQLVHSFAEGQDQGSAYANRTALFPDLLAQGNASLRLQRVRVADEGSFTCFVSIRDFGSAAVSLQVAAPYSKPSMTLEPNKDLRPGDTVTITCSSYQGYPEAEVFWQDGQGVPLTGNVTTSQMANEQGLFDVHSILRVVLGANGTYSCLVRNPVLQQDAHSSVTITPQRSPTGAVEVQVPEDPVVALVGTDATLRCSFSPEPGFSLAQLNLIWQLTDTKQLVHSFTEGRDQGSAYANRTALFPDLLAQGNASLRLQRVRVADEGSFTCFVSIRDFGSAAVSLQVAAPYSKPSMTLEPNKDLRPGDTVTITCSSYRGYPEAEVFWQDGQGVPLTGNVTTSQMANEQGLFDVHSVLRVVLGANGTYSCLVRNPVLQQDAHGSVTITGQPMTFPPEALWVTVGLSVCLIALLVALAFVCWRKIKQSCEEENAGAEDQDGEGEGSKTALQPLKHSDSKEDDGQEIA
Experimental: Rabbit anti-human B7-H3 monoclonal antibodies SP265 and S10H50L58 were applied onto formalin-fixed paraffin embedded (FFPE) tissue samples to assess the staining patterns of these antibodies. Tissue samples include Hs700t (positive control), kidney (negative control) and renal cell carcinoma (positive control). IHC was performed on BenchMark Ultra (Ventana Medical Systems) using mild CC1 cell conditioning with OptiView detection kit.

[1] = target: T2, peptide immunogen (human B7-H3 aa 521-534), KHSDSKEDDGQEIA (human, not fully specified); assay: ELISA, antibody on immobilized peptide immunogen
T2 construct: also called immobilized peptide immunogen
T2 peptide: KHSDSKEDDGQEIA
Experimental: ELISA studies were performed with the SP265 antibody to evaluate binding to the immobilized peptide immunogen (human B7-H3 aa 521-534).

binding result (human B7-H3): binds
EC50 [1]: 0.067 nM
B1: Rabbit anti-human B7-H3 monoclonal antibody SP265 (antibody, V domains shown)
VH: QSVEESRGGLIKPTDTLTLTCTVSGFSLGSYGVSWVRQAPGNGLEWIGGSGKRGNPYYASWAKSRSTITRNTNLNTVTLKMTSLTAADTATYFCASRAPVVSTSMTFNIWGPGTLVTVSS
VL: AQVPTQTPSPVSAAVGGTVTINCQASQSVYNNKNLSWYQQKPGQPPKLLIYEASTLASGVPSRFSGSGSGTQFALTISGVQCEDAATYYCQGEFTCSGADCGAFGGGTEVVVK
notes: also called SP265 anti-B7-H3 antibody; SP265 B7-H3 antibody
